# Laboratory results published in article PMC11077774 (2024).
# B1: BicD2-CTD (C-terminal cargo-binding domain of human Bicaudal D2, residues 715-804) [human] / full-length GTP-bound Rab6a/Q72L with N-terminal GST tag [human] (parent complex)
# chain 1: YENEKAMVTETMMKLRNELKALKEDAATFSSLRAMFATRCDEYITQLDEMQRQLAAAEDEKKTLNSLLRMAIQQKLALTQRLELLELDHE
# chain 2: MSTGGDFGNPLRKFKLVFLGEQSVGKTSLITRFMYDSFDNTYQATIGIDFLSKTMYLEDRTVRLQLWDTAGLERFRSLIPSYIRDSTVAVVVYDITNVNSFQQTTKWIDDVRTERGSDVIIMLVGNKTDLADKRQVSIEEGERKAKELNVMFIETSAKAGYNVKQLFRRVAAALPGMESTQDRSREDMIDIKLEKPQEQPVSEGGCSC
# Variants of: B1
# Experiment: GST pull-down, SDS-PAGE band quantification; parent: 1; read off a plot
row,Variant,ratio to parent
1,chain 2 Y42A,~0.38
2,chain 2 R63A,~0.07
3,chain 2 I83A,~0.02
4,chain 2 D85A,~0.99
5,chain 2 S77A,~0.86
6,chain 2 F50A,~0.37
7,chain 2 R74A,~0.95
8,chain 2 T54A,~0.79
9,chain 2 R84A,~1
10,chain 2 P80A,~0.75
11,chain 2 F75A,~0.02
12,chain 2 S81A,~1
13,chain 2 Q65A,~0.48
14,chain 2 I46A,~0.07
15,chain 2 Q43A,~1
16,chain 2 I48A,~1.3
17,chain 2 K53A,~0.01
18,chain 2 Y82A,~0.16
19,chain 2 I79A,~0.1
20,chain 2 L78A,~0.57
21,chain 2 Y35A,~0.4
22,chain 2 L51A,~1.1
23,chain 2 D49A,~0.04
24,chain 2 S52A,~1
